T1: RnPP5 TPR wild type (rat protein phosphatase 5 TPR domain) (rat)
T1 sequence (P53042 whole entry, looked up): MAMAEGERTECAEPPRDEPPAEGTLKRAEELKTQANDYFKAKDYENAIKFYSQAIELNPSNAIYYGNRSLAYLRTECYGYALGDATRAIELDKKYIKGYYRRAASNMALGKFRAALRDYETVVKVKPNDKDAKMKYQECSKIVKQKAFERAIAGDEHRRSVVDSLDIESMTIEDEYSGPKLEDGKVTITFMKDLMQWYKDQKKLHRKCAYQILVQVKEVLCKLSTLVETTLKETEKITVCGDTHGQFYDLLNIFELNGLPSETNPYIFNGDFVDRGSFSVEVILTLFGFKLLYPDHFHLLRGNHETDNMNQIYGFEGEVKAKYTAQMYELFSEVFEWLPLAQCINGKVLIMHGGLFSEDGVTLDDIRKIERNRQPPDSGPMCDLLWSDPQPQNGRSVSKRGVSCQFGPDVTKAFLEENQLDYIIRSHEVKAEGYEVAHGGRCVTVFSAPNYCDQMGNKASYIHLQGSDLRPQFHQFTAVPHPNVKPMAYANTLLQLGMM

T2: HsPP5 TPR (human protein phosphatase 5 TPR domain, amino acids 1-181) (human, UniProt P53041 1-181)
T2 sequence (looked up): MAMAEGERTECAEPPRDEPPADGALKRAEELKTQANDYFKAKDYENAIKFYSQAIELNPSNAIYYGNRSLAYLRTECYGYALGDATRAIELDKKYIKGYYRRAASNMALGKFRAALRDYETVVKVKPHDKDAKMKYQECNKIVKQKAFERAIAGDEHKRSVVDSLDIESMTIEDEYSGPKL


Tests used:
Experiment in all cases: ELISA
[1] = molecular target: RnPP5 TPR E29A (rat)
[2] = molecular target: RnPP5 TPR E56A (rat)
[3] = molecular target: RnPP5 TPR E76A (rat)
[4] = molecular target: RnPP5 TPR R113A (rat)
[5] = molecular target: RnPP5 TPR R117A (rat)
[6] = molecular target: RnPP5 TPR Y80A (rat)
[7] = molecular target: RnPP5 TPR K32A (rat)
[8] = molecular target: RnPP5 TPR R101A (rat)
[9] = molecular target: RnPP5 TPR R74A (rat)
[10] = molecular target: RnPP5 TPR I63A (rat)
[11] = molecular target: RnPP5 TPR K40A (rat)
[12] = molecular target: T1, RnPP5 TPR wild type (rat protein phosphatase 5 TPR domain) (rat)
[13] = molecular target: HsHop TPR2B (amino acids 353-477) (human, UniProt P31948 353-477)
[14] = molecular target: HsHop TPR1 (amino acids 1-118) (human, UniProt P31948 1-118)
[15] = molecular target: HsHop TPR2A (amino acids 223-352) (human, UniProt P31948 223-352)
[16] = molecular target: T2, HsPP5 TPR (human protein phosphatase 5 …)

HsHop TPR2A (amino acids 223-352), sequence (P31948 223-352): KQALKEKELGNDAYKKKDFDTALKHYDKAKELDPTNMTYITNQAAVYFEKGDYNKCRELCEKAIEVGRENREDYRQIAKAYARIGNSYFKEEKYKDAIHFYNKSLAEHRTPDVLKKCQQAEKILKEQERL
HsHop TPR1 (amino acids 1-118), sequence (P31948 1-118): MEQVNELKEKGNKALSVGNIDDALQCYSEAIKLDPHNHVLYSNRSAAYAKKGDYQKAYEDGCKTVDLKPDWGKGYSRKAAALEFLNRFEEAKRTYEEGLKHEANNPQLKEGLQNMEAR
HsHop TPR2B (amino acids 353-477), sequence (P31948 353-477): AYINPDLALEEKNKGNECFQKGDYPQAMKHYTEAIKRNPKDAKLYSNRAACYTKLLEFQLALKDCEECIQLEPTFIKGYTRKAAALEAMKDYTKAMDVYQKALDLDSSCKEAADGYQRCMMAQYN

| Molecule | A405 (ELISA) (absorbance at 405 nm) [1] | A405 (ELISA) (absorbance at 405 nm) [2] | A405 (ELISA) (absorbance at 405 nm) [4] | A405 (ELISA) (absorbance at 405 nm) [5] | A405 (ELISA) (absorbance at 405 nm) [6] | A405 (ELISA) (absorbance at 405 nm) [8] | A405 (ELISA) (absorbance at 405 nm) [9] | further results |
| --- | --- | --- | --- | --- | --- | --- | --- | --- |
| hsp90 C-12 control phage, displayed peptide … (the 12 residues located at the C-terminus of hsp90) | 1.06 | 1.08 | 0.72 | 1.06 | 1.09 |  |  | A405 (ELISA) (absorbance at 405 nm) [3]: 1.12 |
| RLLSADDDVLFG [LFG phage #1, displayed peptide …] |  | 0.78 | 0.66 | 0.8 |  | 0.53 |  | A405 (ELISA) (absorbance at 405 nm) [7]: 0.74 |
| KHTVADDELLFG [LFG phage #2, displayed peptide …] | 0.75 |  | 0.74 | 0.78 |  | 0.54 | 0.75 |  |
| RFQQMNQSWDVD [T7 phage #1 (VD phage #1), displayed peptide …] |  |  | 0.84 | 1 | 1.08 |  | 0.75 | A405 (ELISA) (absorbance at 405 nm) [10]: 0.84; A405 (ELISA) (absorbance at 405 nm) [11]: 1.01; A405 (ELISA) (absorbance at 405 nm) [12]: 1.14 |
| GDDDTSRMEEVD |  |  |  |  |  |  |  | A405 (ELISA) [13]: 0.24 absorbance at 405 nm |
| NAHLRLEMNDVD [T7 phage #7 (VD phage with a -4 methionine), displayed peptide NAHLRLEMNDVD] |  |  |  |  |  |  |  | A405 (ELISA) [14]: 0.32 absorbance at 405 nm; A405 (ELISA) [15]: 0.04 absorbance at 405 nm; A405 (ELISA) [16]: 0.56 absorbance at 405 nm |

Source: article PMC3709441 (The Biochemical journal, 2009)
